Test results: paper PMC7380489 (NAR Cancer, 2020)

B1: mouse ZFP568 residues 1-105 containing the first KRAB domain (1K) (domain or fragment)
chain: not shown
B2: human TRIM28 RBCC domain R184D (domain or fragment)
chain: CGVCRERLRPEREPRLLPCLHSACSACLGPAAPAAANSSGDGGAAGDGTVVDCPVCKQQCFSKDIVENYFMRDSGSKAATDAQDANQCCTSCEDNAPATSYCVECSEPLCETCVEAHQDVKYTKDHTVRSTGPAKSRDGERTVYCNVHKHEPLVLFCESCDTLTCRDCQLNAHKDHQYQFLEDAVRNQRKLLASLVKRLGDKHATLQKSTKEVRSSIRQVSDVQKRVQVDVKMAILQIMKELNKRGRVLVNDAQKVTEGQQERLERQHWTMTKIQKHQEHILRFASWALESDNNTALLLSKKLIYFQLHRAL

Columns and labels:
[1] = biological target: B2; experiment: AUC
AUC = biological target: the molecule itself; experiment: AUC

| Binder | stoichiometry N [1] | stoichiometry N (AUC) |
| --- | --- | --- |
| B1 | 2 RBCC chains per 1K (2:1) | – |
| B2 | – | 2 |
